The binders below were run against T1, PltB homopentamer, biotinylated (Salmonella enterica serovar Typhi; …, UniProt Q8Z6A3, biotinylated with EZ-link NHS-Biotin (sites not given)) (assay: not given). Settings: not given.

Binder	binding result
T2E11 (VHH) VHH: QLQLVETGGGLVQPGGSLRLSCAASGFSLDYYAIGWFRQAPGKEREGVGCISSSGSTTKYADSVKGRFTISRDNAKNTVYLQMNSLKPEDTAVYYCAARNPADLNCGAYVLNGEYWGQGTQVTVPS	binds
T2C7 (VHH) VHH: QLQLAESGGGLVQAGGSLRLSCVVSGRTDSSYAVGWFRQAPGKEREFVAAIMWSGISTYYADSVKGRFTISLDNAKSTVYVQMNSLKPEDTAVYYCAAWKGATVTDDDPWGQGTQVTVSS	binds
T2C1 (VHH) VHH: QVQLVETGGGLVQAGGSLRLSCAASGRTFSGDAMGWFRQAPGKEREFVAAISWNGGSTDYADSVKGRFTISRDAKNTVYLQMNSLKPEDTAVYYCASSREDYGSSFLRGSYDYLGQGTQVTVSS	binds
T2B2 (VHH) VHH: QLQLAESGGGLVQAGGSLRLSCAASGRTFNTLHLAWFRQAPGNERDFVASISGSLGSLHYADSVKGRFTISRDNANNTVYLQMNSLKLEDTAVYYCAGAPIYDRFSSSSSSYDYWGQGTQVTVSS	binds
T2B4 (VHH) VHH: QVQLVETGGALVQTGGSLRLSCAVSGRSSSTQGLGWYRQAPGKEREFVATINWISGATYYSDSVKGRFSISRDNAENTVSLQMHDLKPDDTAVYYCGAGLSPIARMDYWGQGTQVTVSS	binds
T2A7 (VHH) VHH: QVQLVETGGGLVQTGGSLRLSCAASGFTFDDFAIGWFRQAPGKEREWVSCISSRNGSPYYADSVKGRFTISSDNAKNTVYLQMNSLKPEDTAVYYCKADTDSIVPSCNALDTWGQGTLVTVSS	binds
T2H3 (VHH) VHH: QVQLAESGGGLVQAGGSLRLSCVASGRTFDINTMAWYRQAPGKQRDFVASSYHGGITNYADSVKGRFTMSRDNAKNTVYLQMNSLKPEDTGVYYCTWRGGGVYWGQGTQVTVSS	binds
T2H5 (VHH) VHH: QVQLVETGGGLVQAGGSLRLSCTASGFTFDEYAIGWFRQAPGKEREMILCISSVGGSTYYADSVKGRFTISSDNAKNTMYLQMSSLKPEDTAKYYCAVDVTPPHSCNALDTWGQGTLVTVSS	binds
T2C5 (VHH) VHH: QVQLVETGGGLVQPGGSLRLSCATSGFTFSSTTMTWVRQAPGKGLEWLSGIYSDGRTEYADSVKGRFTISRDNAKNTLYLEMNSLKPEDTAVYFCAKGLLGAERGQGTRVTVSS	binds
T2A2 (VHH) VHH: QVQLAETGGGLVQPGGSLRLSCAVSGFMVNSYDIGWFRQAPGKEREGVSCISSSGGATHYVDSVKGRFTISRDNAKNMVYLQMNSLKPEDTATYYCAANRMTRCSDYHGYPFWGQGTQVTVSS	binds
T2D8 (VHH) VHH: QLQLVESGGGLVQPGGSLRLSCAASGFTLDYYAIGWFRQAPGKEREWVSCLGRSSSSTSYVADSVQGRFTISRDNAKNTVYLQMNSLKPEDTAVYYCAADLSSQISSCNALDTWGQGTLVTVSS	binds
T2E8 (VHH) VHH: QVQLAESGGGSVQAGGSLRLSCAASGLTFDKYAIGWFRQAPGKGREMVSCINTNYGSTYYADSVKGRFTISSDTAKNTVYLQMNSLSPEDTAVYYCAADTRSSWPSCNALDTWGQGTLVTVSS	binds
T2A3 (VHH) VHH: QVQLAESGGGLVQAGGSLRLSCAASGLTFDKYAIGWFRQAPGKERELVSCISTNYGSPYYADSVKGRFTISSDNAKNTVYLQMNSLKPEDTAVYYCAADTRSSWPSCNALDARGQGTLVTVSS	binds
T2D2 (VHH) VHH: QVQLAETGGGLVQPGGSLRLSCAASGFDFSRSTMSWVRQAPGKNIEWVSDINSGGGLTNYGDTVKDRFTISRDNAKNTLYLQMNSLDVEDTAVYYCVKGMWITSDQPRGQGTQVTVSS	binds
T2E12 (VHH) VHH: QVQLAESGGGLVQAGGSLRLSCAASGFTFDDYAVAWFRQAPGKAREMVLCISSSGGSSYYADFVKGRFTVPSNSAKNTVYLQMNSLKPEDTAKYICAVDATYPHSCNALDAWGQGTLVTVSS	binds
T2A1 (VHH) VHH: QVQLVESGGGLVQAGGSLRLTCAGSGRTFSGDVMGWFRQAPGKEREFVAAISYNGGSTYYADSVKGRFTISRDNAKNTVYLQMDGLKPGDTAVYYCASSREDYGSSLAKGSYDYWGQGTQVTVSS	binds
T2G6 (VHH) VHH: QVQLVESGGGLVQAGGSLRLSCAASGFTFDDYAIGWFRQAPGKEREMILCINSRSGSTSYYADSVKGRFTVSVNSAKNTAYLQMNSLKPEDTAVYYCAADVTHPHSCNALDAWGQGTLVTVSS	binds
T2H1 (VHH) VHH: QVQLVESGGGLVQAGGSLRLSCAASGFTFDDYAIGWFRQAPGKEREQILCINSNRARTSYYAESIKGRFTVSVNSAKNTVYLQMNSLKPEDTAVYYCAADVTHPHSCNALDAWGQGTLVTVSS	binds
T2G7 (VHH) VHH: QVQLVESGGGSVQAGGSLRLSCAASGFTFDDYAIGWFRQAPGKEREMILCINSRAGMTSYSADSVKGRFTVSVNSAKNTAYLQMNSLKPEDTAKYYCAADVTHPHSCNALDAWGQGTLVTVSS	binds
T2B6 (VHH) VHH: QLQLAESGGGLVQAGDSLRLSCADSGRTFSDYAMGWFRQAPGKEREFVAAISWNGRSTYYIEAVKDRFTISRDNAKKTLYLQMNSLKPEDTAVYYCAAAREDYGSSLVKGSADYWGQGTQVTVSS	binds
T2D10 (VHH) VHH: QVQLAETGGGLVQAGGSLRLSCAASGLTSSRYAMAWFRQVPGLEREFVASMTGSGGRTFYADSVKGRFTISRDNAKNTVYLQMNNLNPEDTAVYYCAVEYRDSGTRWSNEYDYWGQGTQVTVSS	binds
T2B12 (VHH) VHH: QLQLVESGGGSVQAGGSLRLSCAASGFTFGDYAIAFFRQAPGKEREGVSCISTYDGSTYYGDSVKGRFTISSDNAKNTVYLQMNSLKPEDTAVYYCAADRADCGWYYPYDYWGQGTQVTVSS	binds
T2D9 (VHH) VHH: QLQLVESGGGLVQPGGSLRLSCVLSGSDLAYYNVGWFRQAPGKEREGVACTSRVSDTKYYADSVKARFTVARDNAKNTVNLQMSSLRPEDTAVYSCALLRWCTTEDSDSEGMGHWGKGTLVTVSS	binds

What follows are binders tested against T1, PltB homopentamer, biotinylated (assay: ELISA; […] (30 min, 37°C) […]). Settings: both partners purified.

Binder	binding result
T2G4 (VHH, also called anti-PltB VHH T2G4; source: E. coli Rosetta-gami 2(DE3)pLacI, pET32b+, purified (Ni-NTA)) VHH: QVQLVESGGGSLRLSCAVFGRTFSGDAVGWFRQAPGKEREFVAAINWNGRSTDYADSVKGRFTISRDDTENTVYLQMNSLKPEDTAVYYCATSREDYGSSFLRGSYDYLGQGTQVTVSS	binds
T2F3 (VHH, also called anti-PltB VHH T2F3; source: E. coli Rosetta-gami 2(DE3)pLacI, pET32b+, purified (Ni-NTA)) VHH: QVQLAETGGALVQTGGSLRLSCAVSGRNSEIQGLGWYRQAPGKEREFVATINWRSGATYYDDSVKGRFSISRDNAENTVSLQMNDLKPDDTAVYYCGAGMSPIARMDYWGQGTQVTVSS	binds
T2F7 (VHH, also called anti-PltB VHH T2F7; source: E. coli Rosetta-gami 2(DE3)pLacI, pET32b+, purified (Ni-NTA)) VHH: QVQLVESGGGLVQPGGSLRLSCAASGFDFSRSTLSWVRQSPGKDFEWVSDINSGSTLTNYGDSVKGRFTTSRDNAKNTLYLQMNSLKPEDTAVYYCVKGMWITRDQPRGQGTQVTVSS	binds
T2G11 (VHH, also called anti-PltB VHH T2G11; source: E. coli Rosetta-gami 2(DE3)pLacI, pET32b+, purified (Ni-NTA)) VHH: QVQLVETGGLVQAGGSLSLSCAVSGRTFNLLHLAWFRQAPGNERDLVASISGSLGSVYYADSVRGRFTISRDAANNTVYLQMNSLKLEDTAVYYCAGAPIFDRFSSSSSSYDYWGQGTQVTVSS	binds
T2G1 (VHH, also called anti-PltB VHH T2G1; source: E. coli Rosetta-gami 2(DE3)pLacI, pET32b+, purified (Ni-NTA)) VHH: QVQLAESGGGLVQAGGSLRLSCAASGLTFDKYAIGWFRQAPGKERELVSCISTNYGSTYYADSVKGRFTISTDNAKNTVYLQMNGLKPEDTAVYYCAADTRSSWPSCNALDTWGQGTLVTVSS	binds
T2E1 (VHH, also called anti-PltB VHH T2E1; source: E. coli Rosetta-gami 2(DE3)pLacI, pET32b+, purified (Ni-NTA)) VHH: QVQLAESGGGFVQAGGSLRLSCVESGRSFSVFAMGWFRQAPGKERELVAAISWRGDSTYYADLVKGRFTISRDNAKNAVYLQMNSLKPEDTAVYYCAADRSDYVVTHEYDYWGQGTQVTISP	binds
T2F6 (VHH, also called anti-PltB VHH T2F6; source: E. coli Rosetta-gami 2(DE3)pLacI, pET32b+, purified (Ni-NTA)) VHH: QLQLAESGGGLVQPGGSLRLSCAVSGFMVNSYDIGWFRQAPGKAREGISCINTSGDTPNYADSVKGRFTISRDNAKNMVYLQMNSLKPEDTATYFCAANRMTRCSDYNGYPYWGQGTQVIVSS	binds
T2F2 (VHH, also called anti-PltB VHH T2F2; source: E. coli Rosetta-gami 2(DE3)pLacI, pET32b+, purified (Ni-NTA)) VHH: QVQLAESGGGLVQAGGSLRLSCVASGRTFSSYAMGWFRRAPGKEREFVASILWSDGSAAYADSVEGRFTISRDNAKNTVHLQMNSLQPEDTAVYYCAAEARGSGTRWGNEYDYWGQGTQVTVSS	binds
T2F11 (VHH, also called anti-PltB VHH T2F11; source: E. coli Rosetta-gami 2(DE3)pLacI, pET32b+, purified (Ni-NTA)) VHH: QVQLVETGGGLVQPGGSLRLSCVLSGSDLAYYNVGWFRQAPGKEREGVACTSRVSDTKYYADSVKARFTVARDNAKNTVNLQMNSLRPEDTAVYSCALLRWCTTEGSDSEGMGHWGKGTLVTVSS	binds
